These results are taken from US20260265385A1, “CD122 BINDING AGENTS AND METHOD OF USING SAME” (AnaptysBio, Inc., priority 2022, published 2026).

For test [1], the target named is human IL-2Rβ (CD122), full-length, on cells (human) (UniProt P14784). Kind of test: flow cytometry competition: antibody titrated against recombinant IL-2 (5 nM) binding to HEK293 cells expressing human IL-2Rβ and IL-2Rγ. (In general: In flow cytometry, cells or beads pass a laser one at a time.)
The target is the same in test [2]. In words: flow cytometry competition: antibody titrated against recombinant IL-15 (2 nM) binding to HEK293 cells expressing human IL-2Rβ and IL-2Rγ.

human IL-2Rβ (CD122), full-length, on cells (human), sequence (P14784 27-551): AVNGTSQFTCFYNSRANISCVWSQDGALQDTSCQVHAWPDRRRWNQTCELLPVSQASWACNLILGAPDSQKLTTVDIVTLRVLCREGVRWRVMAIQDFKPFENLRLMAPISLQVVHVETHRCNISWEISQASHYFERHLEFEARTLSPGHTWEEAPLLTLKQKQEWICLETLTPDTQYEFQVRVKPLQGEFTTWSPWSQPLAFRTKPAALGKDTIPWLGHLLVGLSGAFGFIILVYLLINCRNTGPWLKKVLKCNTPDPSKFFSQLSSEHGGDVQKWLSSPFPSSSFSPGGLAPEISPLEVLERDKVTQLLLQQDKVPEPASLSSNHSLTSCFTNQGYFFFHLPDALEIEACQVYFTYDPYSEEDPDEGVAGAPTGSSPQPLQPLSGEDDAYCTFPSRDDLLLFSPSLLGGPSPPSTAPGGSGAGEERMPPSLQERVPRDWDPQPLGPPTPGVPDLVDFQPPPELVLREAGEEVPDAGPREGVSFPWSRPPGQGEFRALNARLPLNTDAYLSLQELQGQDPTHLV

B1: APE14773.01 (anti-CD122 control ref ABC2) (antibody, from another filing, V domains shown)
VH: EVKLVESGGGLVQPGGSLRLSCATSGFTFSDFYMEWVRQPPGKRLEWIAASRNKANDYTTEYSASVKGRFIVSRDTSQSILYLQMNALRAEDTAIYYCARSYYRYDGMDYWGQGTSVTVSS
VL: QVVLTQSPVIMSASPGEKVTMTCSAISSVSYMYWYQQKPGSSPRLLIYDTSNLVSGVPVRFSGSGSGTSYSLTISRMEAEDAATYYCQQWNTYPYTFGGGTKLEIK
For B1, the IC50 (read off the curve) in test [1] was 1 nM; in test [2], 0.9 nM.
